From patent publication US20240307562A1 (ONCOONE RESEARCH AND DEVELOPMENT, published 2024)

B1: C0008 (Imalumab control antibody) (antibody, human IgG1, kappa, V domains shown)
VH: EVQLLESGGGLVQPGGSLRLSCAASGFTFSIYSMNWVRQAPGKGLEWVSSIGSSGGTTYYADSVKGRFTISRDNSKNTLYLQMNSLRAEDTAVYYCAGSQWLYGMDVWGQGTTVTVSS
VL: DIQMTQSPSSLSASVGDRVTITCRSSQRIMTYLNWYQQKPGKAPKLLIFVASHSQSGVPSRFRGSGSETDFTLTISGLQPEDSATYYCQQSFWTPLTFGGGTKVEIKR
notes: also called Bax69
B2: C0073 (antibody, human IgG1, kappa)
heavy: not shown
light: DIQMTQSPSSLSASVGDRVTITCRSSQRIMTYLNWYQQKPGKAPKLLIYVGSHSQSGVPSRFRGSGSETDFTLTISGLQPEDSATYYCQQSFFTPLTFGGGTKVEIKRTVAAPSVFIFPPSDEQLKSGTASVVCLLNNFYPREAKVQWKVDNALQSGNSQESVTEQDSKDSTYSLSSTLTLSKADYEKHKVYACEVTHQGLSSPVTKSFNRGEC
notes: IgG1, wt Fc
B3: C0076 (antibody, human IgG1, kappa, V domains shown)
VH: EVQLQESGGGLVQPGGSLRLSCAASGFTFSIYSMNWVRQAPGKGLEWVSSIGSSGGTTYYADSVKGRFTISRDNSKNTLYLQMNSLRAEDTAVYYCAGSQWLYGMDVWGQGTTVTVSS
VL: DIQMTQSPSSLSASVGDRVTITCRSSQRIMTYLNWYQQKPGKAPKLLIYVGSHSQSGVPSRFRGSGSETDFTLTISGLQPEDSATYYCQQSFWTPLTFGGGTKVEIKR
notes: IgG1, wt Fc
B4: C0077 (antibody, human IgG1, kappa, name in Kabat numbering, V domains shown)
VH: EVQLQESGGGLVQPGGSLRLSCAASGFTFSIYSMNWVRQAPGKGLEWVSSIGSSGGTTYYADSVKGRFTISRDNSKNTLYLQMNSLRAEDTAVYYCAGSQWLYGMDVWGQGTTVTVSS
VL: DIQMTQSPSSLSASVGDRVTITCRSSQRIMTYLNWFQQKPGKAPKLLIYVGSHSQSGVPSRFRGSGSETDFTLTISGLQPEDSATYYCQQSFWTPLTFGGGTKVEIKR
notes: IgG1, wt Fc
B5: C0078 (antibody, human IgG1, kappa)
heavy: not shown
light: DIQMTQSPSSLSASVGDRVTITCRSSQRIMTYLNWYQQKPGKAPKLLIYVGSHSQSGVPSRFRGSGSETDFTLTISGLQPEDSATYYCQQSFFTPLTFGGGTKVEIKRTVAAPSVFIFPPSDEQLKSGTASVVCLLNNFYPREAKVQWKVDNALQSGNSQESVTEQDSKDSTYSLSSTLTLSKADYEKHKVYACEVTHQGLSSPVTKSFNRGEC
notes: IgG1, wt Fc
B6: C0083 (antibody, human IgG1, kappa)
heavy: not shown
light: DIQMTQSPSSLSASVGDRVTITCRSSQRIMTYLNWYQQKPGKAPKLLIYVGSHSQSGVPSRFRGSGSETDFTLTISGLQPEDSATYYCQQSFFTPLTFGGGTKVEIKRTVAAPSVFIFPPSDEQLKSGTASVVCLLNNFYPREAKVQWKVDNALQSGNSQESVTEQDSKDSTYSLSSTLTLSKADYEKHKVYACEVTHQGLSSPVTKSFNRGEC
notes: IgG1, wt Fc; also called parent antibody of C0115
B7: C0090 (antibody, human IgG1, kappa)
heavy: not shown
light: DIQMTQSPSSLSASVGDRVTITCRSSQRILTYLNWYQQKPGKAPKLLIYVGSHSQSGVPSRFRGSGSETDFTLTISGLQSEDSATYYCQQSFFTPLTFGGGTKVEIKRTVAAPSVFIFPPSDEQLKSGTASVVCLLNNFYPREAKVQWKVDNALQSGNSQESVTEQDSKDSTYSLSSTLTLSKADYEKHKVYACEVTHQGLSSPVTKSFNRGEC
notes: IgG1, wt Fc; also called parent antibody of C0118
B8: C0115 (antibody, human IgG1, kappa, L234A L235A)
heavy: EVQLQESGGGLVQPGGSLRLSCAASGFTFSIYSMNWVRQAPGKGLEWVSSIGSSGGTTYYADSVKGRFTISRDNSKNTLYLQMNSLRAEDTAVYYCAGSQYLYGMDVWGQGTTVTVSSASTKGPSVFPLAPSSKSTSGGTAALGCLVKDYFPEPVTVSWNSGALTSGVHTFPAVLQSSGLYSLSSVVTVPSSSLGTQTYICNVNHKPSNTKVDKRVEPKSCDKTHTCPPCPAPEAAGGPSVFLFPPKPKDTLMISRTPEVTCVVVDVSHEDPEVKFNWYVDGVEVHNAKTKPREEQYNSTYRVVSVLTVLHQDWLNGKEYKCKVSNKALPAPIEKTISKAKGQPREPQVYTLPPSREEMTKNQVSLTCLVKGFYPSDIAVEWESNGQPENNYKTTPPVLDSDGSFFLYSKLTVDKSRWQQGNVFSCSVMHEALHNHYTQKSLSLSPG
light: DIQMTQSPSSLSASVGDRVTITCRSSQRIMTYLNWYQQKPGKAPKLLIYVGSHSQSGVPSRFRGSGSETDFTLTISGLQPEDSATYYCQQSFFTPLTFGGGTKVEIKRTVAAPSVFIFPPSDEQLKSGTASVVCLLNNFYPREAKVQWKVDNALQSGNSQESVTEQDSKDSTYSLSSTLTLSKADYEKHKVYACEVTHQGLSSPVTKSFNRGEC
notes: IgG1 with Fc silencing L234A/L235A (EU numbering); also called Fc silenced anti-oxMIF antibody C0115
B9: C0118 (antibody, human IgG1, kappa, L234A L235A)
heavy: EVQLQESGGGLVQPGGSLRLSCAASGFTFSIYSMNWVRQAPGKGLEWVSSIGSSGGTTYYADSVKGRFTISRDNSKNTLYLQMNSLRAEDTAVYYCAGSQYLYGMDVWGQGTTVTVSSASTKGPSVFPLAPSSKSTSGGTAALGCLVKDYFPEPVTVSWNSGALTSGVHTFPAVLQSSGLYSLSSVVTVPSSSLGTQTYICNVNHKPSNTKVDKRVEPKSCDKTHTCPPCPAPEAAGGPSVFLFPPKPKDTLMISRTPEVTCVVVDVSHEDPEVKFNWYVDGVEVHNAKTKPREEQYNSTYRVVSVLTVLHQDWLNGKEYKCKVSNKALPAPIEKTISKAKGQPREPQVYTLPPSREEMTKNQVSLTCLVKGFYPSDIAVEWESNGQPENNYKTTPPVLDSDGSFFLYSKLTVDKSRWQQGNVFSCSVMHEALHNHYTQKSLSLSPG
light: DIQMTQSPSSLSASVGDRVTITCRSSQRILTYLNWYQQKPGKAPKLLIYVGSHSQSGVPSRFRGSGSETDFTLTISGLQSEDSATYYCQQSFFTPLTFGGGTKVEIKRTVAAPSVFIFPPSDEQLKSGTASVVCLLNNFYPREAKVQWKVDNALQSGNSQESVTEQDSKDSTYSLSSTLTLSKADYEKHKVYACEVTHQGLSSPVTKSFNRGEC
notes: IgG1 with Fc silencing L234A/L235A (EU numbering); also called Fc silenced anti-oxMIF antibody C0118

Columns and labels:
[1] = target: T1, Recombinant human MIF immobilized on ELISA plates (oxMIF) (human, UniProt P14174 2-115); assay: ELISA on immobilized human MIF (oxMIF), protein L-HRP detection; EC50 of 4-parameter fit taken as KD
T1 construct: also called immobilized MIF; oxidized MIF
T1 sequence (P14174 2-115 limits assumed): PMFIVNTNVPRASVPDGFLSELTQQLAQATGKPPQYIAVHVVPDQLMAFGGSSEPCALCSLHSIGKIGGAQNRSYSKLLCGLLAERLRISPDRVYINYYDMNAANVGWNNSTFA
Experimental: (§1) Material and Methods: Recombinant human MIF diluted in PBS at 1 μg/ml was immobilized into ELISA plates overnight at 4° C. (transforming MIF to oxMIF according to Thiele et al., 2015). After blocking, serial dilutions of anti-oxMIF antibodies were added to the plates. Finally, bound antibodies were detected using a protein L-HRP conjugate and tetramethylbenzidine (TMB) as substrate. The chromogenic reaction was stopped with 3M H₂SO₄ and OD was measured at 450 nm. Data from different experiments were normalized to the maximal OD of the anti-oxMIF antibody C0008 (=100%) of the respective experiment and EC₅₀ values were determined by 4-parameter fit using GraphPad Prism (and the mean of two experiments is shown).

[2] = target: T1, Recombinant human MIF immobilized on …; assay: ELISA on immobilized human MIF (oxMIF), anti-human IgG (Fc)-HRP detection; EC50 taken as apparent KD
Experimental: Recombinant human MIF diluted in PBS at 1 μg/ml was immobilized into ELISA plates overnight at 4° C. (transforming MIF to oxMIF according to Thiele et al., 2015). After blocking, serial dilutions of anti-oxMIF antibodies with and without DFO* conjugation (DFO* conjugation is described in Example 19) were added to the plates. Finally, bound antibodies were detected using a Goat anti-human IgG (Fc)-HRP conjugate and tetramethylbenzidine (TMB) as substrate. The chromogenic reaction was stopped with 3M H₂SO₄ and OD was measured at 450 nm. If data from different experiments were combined, the data were normalized to the maximal OD of the anti-oxMIF antibody C0008 (=100%) of the respective experiment and EC₅₀ values were determined by 4-parameter fit using GraphPad Prism (and the mean+/−SEM of two experiments is shown).
Results and conclusion: The binding of the newly designed antibodies towards immobilized MIF (oxMIF) was measured over a broad range of concentrations and the resulting binding curves are illustrated in FIG. 19. The anti-oxMIF antibody C0008 was used as reference for oxMIF binding. […] Additionally, DFO* conjugation of the newly designed Fc-silenced antibodies C0115 and C0118 has not changed their affinity (FIG. 19B).

[3] = target: T1, Recombinant human MIF immobilized on …; assay: ELISA on immobilized human MIF (oxMIF)
Experimental: as §1
Results and conclusion: The binding of the newly designed antibodies towards immobilized MIF (oxMIF) was measured over a broad range of concentrations and the resulting binding curves are illustrated in FIG. 8. The anti-oxMIF antibody C0008 was used as reference for oxMIF binding.

[4] = target: human FcγRIIIA receptor, V158 (high affinity allotype) (human, UniProt P08637 17-254); assay: cell-based or functional assay
human FcγRIIIA receptor, V158 (high affinity allotype), sequence (P08637 17-254 F176V): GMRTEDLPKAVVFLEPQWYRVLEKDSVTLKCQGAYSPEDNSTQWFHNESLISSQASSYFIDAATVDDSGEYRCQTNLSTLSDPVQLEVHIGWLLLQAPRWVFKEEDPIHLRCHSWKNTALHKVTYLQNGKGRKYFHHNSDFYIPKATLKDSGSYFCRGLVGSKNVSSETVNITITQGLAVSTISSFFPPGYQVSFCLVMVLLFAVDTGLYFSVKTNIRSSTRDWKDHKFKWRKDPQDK

| Binder | Kd [1] | Kd [2] | fold reduction in affinity compared to C0076 [3] | EC50 (read off the curve), ADCC reporter luminescence [4] |
| --- | --- | --- | --- | --- |
| B1 | 700 pM | 190 pM |  |  |
| B2 | 1000 pM |  |  |  |
| B3 | 1100 pM |  |  |  |
| B4 | 5200 pM |  | 5 fold |  |
| B5 | 1600 pM |  |  |  |
| B6 | 500 pM |  |  | ~3000 pM |
| B7 | 500 pM |  |  | ~3000 pM |
| B8 |  | 280 pM |  |  |
| B9 |  | 260 pM |  |  |
